Experiment [1] has as its target T1, whole KDR-ECD (Cat. # 676490, Calbiochem) (human, UniProt P35968 20-764).
T1 construct: extracellular domain; Bought soluble protein; also called soluble KDR; VEGF Receptor 2 D1-7
Nature of the experiment: ELISA, KDR-ECD coat 5 ug/mL, antibody 0.01 ug/mL. The procedure:
(§1) The cross-reactivity of purified antibodies was tested against KDR mouse ortholog KDR mouse ortholog (mouse VEGFR2, or Flk-1) and human VEGFR1 (Flt-1). The ability of the antibodies to bind soluble KDR Ig4-7 domain and to the entire KDR extracellular domain (ECD) was also measured.
(§2) Cross-reactivity experiments were carried out and measured using an ELISA based assay as described in Example 6. […] Antibody controls included IgG1 and IgG4 (Sigma-Aldrich, Cat. #15154 and #14639, respectively).
Background: ELISA stands for enzyme-linked immunosorbent assay.

Experiment [2] concerns the target T2, human KDR (human, UniProt P35968 20-1356). In words: cell-based or functional assay.
Experiment [3] deals with T2, human KDR. Nature of the experiment: cell-based or functional assay. The source holds these as a separate data set.
Experiment [4] has as its target T3, soluble KDR Ig4-7 domain (human, UniProt P35968 328-764).
T3 construct: domain: Ig4-7 domain; also called b-KDRIg4-7-myc-his; Ig4-7 domain of KDR; not shown: myc-his tag of the pSecTag construct
Nature of the experiment: ELISA, KDR Ig4-7 coat (1:1 diln.), antibody 0.1 ug/mL. The procedure:
as §1, §2

In experiment [5] the target is T3, soluble KDR Ig4-7 domain. Nature of the experiment: ELISA, KDR Ig4-7 coat (1:1 diln.), antibody 0.01 ug/mL. The procedure: as §1, §2
Experiment [6] addresses T3, soluble KDR Ig4-7 domain. In words: ELISA, KDR Ig4-7 coat (1:1 diln.), antibody 1 ug/mL. The procedure:
as §1, §2

For experiment [7], the target named is T1, whole KDR-ECD (Cat. # 676490, …). Nature of the experiment: ELISA, KDR-ECD coat 5 ug/mL, antibody 0.1 ug/mL. As for the experimental part:
as §1, §2

Experiment [8] has the same target. In words: ELISA, KDR-ECD coat 5 ug/mL, antibody 1 ug/mL. The procedure: as §1, §2
Experiment [9] has as its target T2, human KDR. Nature of the experiment: FACS titration of purified antibody on HUVEC cells (FACS Kd). The procedure: The binding affinities of the purified antibodies for endogenously-expressed KDR in HUVEC cells was measured. HUVEC cells were seeded at 150,000 cells/well and incubated with titrations of purified antibody for 4 hours at 4° C. The cells were then washed and incubated with goat anti-human IgG-Fc-Cy5+5 μg/mL 7-Amino-Actinomycin (7AAD) for 30 minutes at 4° C. Bound KDR was detected using FACS analysis.

The target in experiment [10] is T2, human KDR. Nature of the experiment: cell-based or functional assay. This is another data set of the same source.
The target in experiment [11] is T4, mouse KDR (Flk-1)/Fc (Cat. #443-KD/CF, R&D Systems, Inc.) (mouse, UniProt P35918 20-762).
T4 construct: Bought reagent; also called mouse VEGFR2; KDR mouse ortholog; not shown: Fc of the bought fusion protein
In words: ELISA, Flk-1 coat 5 ug/mL, antibody 0.1 ug/mL. The procedure:
as §1, §2

For experiment [12], the target named is T4, mouse KDR (Flk-1)/Fc (Cat. #443-KD/CF, …). In words: ELISA, Flk-1 coat 5 ug/mL, antibody 0.01 ug/mL. The procedure:
as §1, §2

Experiment [13] shares this target. In words: ELISA, Flk-1 coat 5 ug/mL, antibody 1 ug/mL. The procedure:
as §1, §2

Three molecules from US20100260765A1 (AstraZeneca / MedImmune, published 2010) can be followed below.

T4 sequence (P35918 20-762 limits assumed): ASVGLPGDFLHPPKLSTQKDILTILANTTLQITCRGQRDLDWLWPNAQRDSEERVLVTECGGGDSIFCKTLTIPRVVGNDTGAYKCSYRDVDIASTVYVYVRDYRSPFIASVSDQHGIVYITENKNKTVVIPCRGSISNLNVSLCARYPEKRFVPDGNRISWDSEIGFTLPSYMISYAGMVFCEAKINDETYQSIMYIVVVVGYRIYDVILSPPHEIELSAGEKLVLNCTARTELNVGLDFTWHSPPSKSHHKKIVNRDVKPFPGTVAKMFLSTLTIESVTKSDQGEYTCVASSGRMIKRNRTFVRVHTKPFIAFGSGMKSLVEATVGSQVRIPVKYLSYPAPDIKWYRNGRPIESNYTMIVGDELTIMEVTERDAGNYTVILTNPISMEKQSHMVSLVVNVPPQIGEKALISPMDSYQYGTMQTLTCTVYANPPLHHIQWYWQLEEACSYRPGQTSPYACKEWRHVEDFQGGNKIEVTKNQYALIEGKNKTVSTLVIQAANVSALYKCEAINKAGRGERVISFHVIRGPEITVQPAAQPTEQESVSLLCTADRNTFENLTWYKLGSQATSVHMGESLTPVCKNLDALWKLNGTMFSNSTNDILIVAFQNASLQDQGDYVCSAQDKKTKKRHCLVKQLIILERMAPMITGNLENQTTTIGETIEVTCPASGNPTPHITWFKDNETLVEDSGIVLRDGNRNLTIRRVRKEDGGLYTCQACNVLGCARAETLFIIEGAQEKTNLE
T1 sequence (P35968 20-764): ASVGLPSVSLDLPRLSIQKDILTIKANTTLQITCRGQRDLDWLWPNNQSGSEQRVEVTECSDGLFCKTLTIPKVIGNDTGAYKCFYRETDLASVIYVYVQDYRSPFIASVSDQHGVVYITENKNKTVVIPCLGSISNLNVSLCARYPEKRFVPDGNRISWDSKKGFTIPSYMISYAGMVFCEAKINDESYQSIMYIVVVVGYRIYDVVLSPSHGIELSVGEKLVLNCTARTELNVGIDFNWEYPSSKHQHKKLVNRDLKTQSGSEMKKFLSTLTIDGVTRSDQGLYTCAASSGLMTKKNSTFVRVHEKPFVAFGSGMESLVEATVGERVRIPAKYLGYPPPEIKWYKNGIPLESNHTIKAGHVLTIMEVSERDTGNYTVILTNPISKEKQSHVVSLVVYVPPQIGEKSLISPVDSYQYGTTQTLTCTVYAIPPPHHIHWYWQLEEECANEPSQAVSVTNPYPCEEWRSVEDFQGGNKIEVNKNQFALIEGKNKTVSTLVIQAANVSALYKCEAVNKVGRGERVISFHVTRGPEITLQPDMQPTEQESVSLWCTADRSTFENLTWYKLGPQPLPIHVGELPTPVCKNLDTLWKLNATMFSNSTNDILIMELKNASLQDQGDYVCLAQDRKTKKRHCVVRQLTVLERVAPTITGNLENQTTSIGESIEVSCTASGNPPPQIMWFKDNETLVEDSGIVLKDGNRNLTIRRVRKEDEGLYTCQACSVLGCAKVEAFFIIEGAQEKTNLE
T2 sequence (P35968 20-1356): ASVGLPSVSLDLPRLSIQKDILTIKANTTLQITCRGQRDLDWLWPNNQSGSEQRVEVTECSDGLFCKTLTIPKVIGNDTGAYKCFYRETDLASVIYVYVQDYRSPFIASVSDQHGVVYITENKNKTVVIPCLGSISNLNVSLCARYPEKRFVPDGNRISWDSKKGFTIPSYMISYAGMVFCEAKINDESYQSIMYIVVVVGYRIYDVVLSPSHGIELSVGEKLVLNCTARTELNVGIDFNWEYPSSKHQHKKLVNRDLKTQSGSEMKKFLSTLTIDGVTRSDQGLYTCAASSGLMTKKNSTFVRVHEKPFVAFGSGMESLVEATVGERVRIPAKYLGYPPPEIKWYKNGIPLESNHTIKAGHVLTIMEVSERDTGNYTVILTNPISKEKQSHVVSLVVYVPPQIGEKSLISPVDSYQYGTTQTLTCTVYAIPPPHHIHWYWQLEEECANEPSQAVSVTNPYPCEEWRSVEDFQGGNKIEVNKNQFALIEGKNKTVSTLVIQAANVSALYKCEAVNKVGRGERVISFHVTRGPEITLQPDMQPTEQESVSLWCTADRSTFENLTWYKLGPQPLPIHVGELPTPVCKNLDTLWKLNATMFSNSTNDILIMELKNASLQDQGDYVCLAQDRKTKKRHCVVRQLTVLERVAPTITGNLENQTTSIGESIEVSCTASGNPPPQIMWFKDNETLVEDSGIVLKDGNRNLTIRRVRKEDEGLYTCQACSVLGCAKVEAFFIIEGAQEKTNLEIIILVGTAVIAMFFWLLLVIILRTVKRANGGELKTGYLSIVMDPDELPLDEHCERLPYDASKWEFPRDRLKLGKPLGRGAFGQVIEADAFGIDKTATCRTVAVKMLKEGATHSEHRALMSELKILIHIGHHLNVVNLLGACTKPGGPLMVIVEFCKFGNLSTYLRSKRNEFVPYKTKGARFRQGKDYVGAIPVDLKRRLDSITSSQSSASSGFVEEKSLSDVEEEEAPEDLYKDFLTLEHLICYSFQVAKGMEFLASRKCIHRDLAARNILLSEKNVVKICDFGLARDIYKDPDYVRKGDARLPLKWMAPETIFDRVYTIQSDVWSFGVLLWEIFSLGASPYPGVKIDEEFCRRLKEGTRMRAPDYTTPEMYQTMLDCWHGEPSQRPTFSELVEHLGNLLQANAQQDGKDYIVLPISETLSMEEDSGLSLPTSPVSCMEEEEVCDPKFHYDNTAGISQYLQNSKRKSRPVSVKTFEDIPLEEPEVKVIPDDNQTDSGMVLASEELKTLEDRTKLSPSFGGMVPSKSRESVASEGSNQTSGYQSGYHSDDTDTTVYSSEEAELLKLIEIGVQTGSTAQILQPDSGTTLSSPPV
T3 sequence (P35968 328-764): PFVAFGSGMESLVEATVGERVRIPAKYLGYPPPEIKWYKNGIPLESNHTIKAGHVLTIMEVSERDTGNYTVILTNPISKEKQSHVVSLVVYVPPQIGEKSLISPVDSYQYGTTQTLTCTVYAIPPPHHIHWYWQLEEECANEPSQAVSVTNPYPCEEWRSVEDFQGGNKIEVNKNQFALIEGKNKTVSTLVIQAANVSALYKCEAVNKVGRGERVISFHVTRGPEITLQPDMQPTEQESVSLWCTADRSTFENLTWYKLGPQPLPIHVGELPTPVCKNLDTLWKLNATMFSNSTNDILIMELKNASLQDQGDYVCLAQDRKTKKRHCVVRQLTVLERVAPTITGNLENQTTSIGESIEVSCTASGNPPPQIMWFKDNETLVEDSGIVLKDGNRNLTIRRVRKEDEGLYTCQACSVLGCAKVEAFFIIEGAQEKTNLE

B1: 30H10 (antibody, V domains shown)
VH: EVQLLESGGGLVQPGGSLRLSCAASGFTFSNYAMSWVRQAPGKGLEWVSAISGSGGITYYADSVKGRFTISRDNSKNTLFLQMNSLRAEDTAVYYCAKASGDNWGQGTLVSVSS
VL: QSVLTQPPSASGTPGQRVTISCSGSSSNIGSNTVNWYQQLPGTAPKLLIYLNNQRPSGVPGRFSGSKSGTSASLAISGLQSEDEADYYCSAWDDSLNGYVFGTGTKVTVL
notes: Fully human monoclonal antibody from a XenoMouse hybridoma (IgG2 or IgG4 strain), purified
With B1, the ELISA reading in experiment [1] turned out to be 0.117. Also, in [2], the “KDR tyrosine phosphorylation in HUVEC, EC50 (nM), Average” value stood at 0.4 nM; the “KDR tyrosine phosphorylation in HUVEC, EC50 (nM), N = 1” value came to 0.6 nM; the “KDR tyrosine phosphorylation in HUVEC, EC50 (nM), N = 2” value is 0.2 nM; the “KDR tyrosine phosphorylation in HUVEC, Maximum Inhibition at 100 nM (% Inhibition), Average” value came to 29%. Besides, in [2], the “KDR tyrosine phosphorylation in HUVEC, Maximum Inhibition at 100 nM (% Inhibition), N = 1” value turned out to be 36% and the “KDR tyrosine phosphorylation in HUVEC, Maximum Inhibition at 100 nM (% Inhibition), N = 2” value came to 22%. In addition, in [3], the “6-keto Prostaglandin F1α release, Maximum Inhibition (% Inhibition), Average” value amounted to 3%; the “6-keto Prostaglandin F1α release, Maximum Inhibition (% Inhibition), N = 1 (200 nM)” value is 0%; the “6-keto Prostaglandin F1α release, Maximum Inhibition (% Inhibition), N = 2 (333 nM)” value was 6%. This molecule registered an ELISA reading in [4] of 2.77. The molecule also registered an ELISA reading in experiment [5] of 1.36. In [6], this molecule registered an ELISA reading of 3.04. For the same molecule, the ELISA reading in experiment [7] was found to be 0.31. The same molecule had an ELISA reading in [8] of 2.47. Further, in experiment [9], the Kd came to 900 pM. For the same molecule, in [10], the “HUVEC survival, Maximum Inhibition at 50 nM (% Inhibition), Average” value (“HUVEC survival … (% Inhibition), Average” below) is -5%; the “HUVEC survival, Maximum Inhibition at 50 nM (% Inhibition), N = 1” value (from here on “HUVEC survival … (% Inhibition), N = 1”) is -9%; the “HUVEC survival, Maximum Inhibition at 50 nM (% Inhibition), N = 2” value (“HUVEC survival … (% Inhibition), N = 2” for short) was -1%.

B2: 29H3 (antibody, V domains shown)
VH: QVQLVQSGAEVKKPGASVKVSCKASGYTFTSYDINWVRQATGQGLEWMGWMNPNSGKTGYAQKFQGRVTMTRNTSINTAYMELSSLRSEDTAVYYCARGGYSNLGWFDPWGQGTLVTVSS
VL: DIQMTQSPSSVSASVGDRVTITCRASQGISSWLVWYHQKPGKAPKLLIYGASSLQSGVPSRFSGSGSGTDFTLTISSLQPEDFATYYCQQANNFPFTFGPGTKVDIK
notes: as for B1
In the case of B2, in experiment [1], the ELISA reading was determined as 0.099. For the same molecule, in experiment [2], the “KDR tyrosine phosphorylation in HUVEC, EC50 (nM), Average” value is 0.4 nM; the “KDR tyrosine phosphorylation in HUVEC, EC50 (nM), N = 1” value turned out to be 0.5 nM; the “KDR tyrosine phosphorylation in HUVEC, EC50 (nM), N = 2” value was 0.4 nM; the “KDR tyrosine phosphorylation in HUVEC, Maximum Inhibition at 100 nM (% Inhibition), Average” value is 32%. Besides, in experiment [2], the “KDR tyrosine phosphorylation in HUVEC, Maximum Inhibition at 100 nM (% Inhibition), N = 1” value worked out at 33% and the “KDR tyrosine phosphorylation in HUVEC, Maximum Inhibition at 100 nM (% Inhibition), N = 2” value is 30%. Besides, in experiment [3], the “6-keto Prostaglandin F1α release, Maximum Inhibition (% Inhibition), Average” value is 5%; the “6-keto Prostaglandin F1α release, Maximum Inhibition (% Inhibition), N = 1 (200 nM)” value was determined as 2%; the “6-keto Prostaglandin F1α release, Maximum Inhibition (% Inhibition), N = 2 (333 nM)” value is 8%. The same molecule yielded an ELISA reading in experiment [4] of 2.36. The same molecule displayed an ELISA reading in [5] of 1.14. In experiment [6], this molecule registered an ELISA reading of 3.02. The molecule further registered an ELISA reading in [7] of 0.306. In experiment [11], this molecule came in with an ELISA reading of 2.35. Moreover, the ELISA reading in experiment [8] amounted to 2.62. Also, the ELISA reading in experiment [12] worked out at 1.14. In [13], the ELISA reading was 3.04. For the same molecule, the Kd in [9] came out at 500 pM. Further, in experiment [10], the “HUVEC survival … (% Inhibition), Average” value was found to be 11%; the “HUVEC survival … (% Inhibition), N = 1” value is 4%; the “HUVEC survival … (% Inhibition), N = 2” value turned out to be 18%.

B3: 32G7 (antibody, V domains shown)
VH: EVQLVESGGGLVKPGGSLRLSCAASGFTISSYSMNWVRQAPGKGLEWVSFISSRSNYIYYADSVKGRFTISRDNAKNSLYLQMNSLRAEDTAVYYCSKDDWFEELWGQGTLVTVSS
VL: DIQMTQSPSSLSASVGDRVTITCRASQDIRNDLGWYQQKPGKAPKRLIYAASSLQSGVPSRFSGSGSGTEFTLTISSLQPEDFATYYCLQHNSFPWTFGQGTKVEIK
notes: as for B1
B3: the ELISA reading in experiment [1] is 0.103. In addition, in experiment [2], the “KDR tyrosine phosphorylation in HUVEC, EC50 (nM), Average” value stood at 0.6 nM; the “KDR tyrosine phosphorylation in HUVEC, EC50 (nM), N = 1” value is 0.6 nM; the “KDR tyrosine phosphorylation in HUVEC, EC50 (nM), N = 2” value was 0.6 nM; the “KDR tyrosine phosphorylation in HUVEC, Maximum Inhibition at 100 nM (% Inhibition), Average” value is 73%. In experiment [2], the “KDR tyrosine phosphorylation in HUVEC, Maximum Inhibition at 100 nM (% Inhibition), N = 1” value amounted to 69% and the “KDR tyrosine phosphorylation in HUVEC, Maximum Inhibition at 100 nM (% Inhibition), N = 2” value stood at 77%. For the same molecule, in experiment [3], the “6-keto Prostaglandin F1α release, EC50 (nM), Average” value came to 23.1 nM; the “6-keto Prostaglandin F1α release, EC50 (nM), N = 1” value stood at 11.2 nM; the “6-keto Prostaglandin F1α release, EC50 (nM), N = 2” value was found to be 35.1 nM; the “6-keto Prostaglandin F1α release, Maximum Inhibition (% Inhibition), Average” value worked out at 42%. For the same molecule, in experiment [3], the “6-keto Prostaglandin F1α release, Maximum Inhibition (% Inhibition), N = 1 (200 nM)” value was determined as 28% and the “6-keto Prostaglandin F1α release, Maximum Inhibition (% Inhibition), N = 2 (333 nM)” value turned out to be 55%. In [4], this molecule had an ELISA reading of 2.31. In [5], this molecule displayed an ELISA reading of 0.933. Also, the ELISA reading in [6] came out at 2.65. The ELISA reading in experiment [7] came to 0.307. In experiment [11], this molecule came in with an ELISA reading of 2.14. In addition, the ELISA reading in [8] was found to be 2.36. The same molecule returned an ELISA reading in experiment [12] of 0.988. In experiment [13], this molecule showed an ELISA reading of 2.67. This molecule also had a Kd in experiment [9] of 200 pM. Further, in experiment [10], the “HUVEC survival … (% Inhibition), Average” value was found to be 72%; the “HUVEC survival … (% Inhibition), N = 1” value was 73%; the “HUVEC survival … (% Inhibition), N = 2” value came out at 72%.

By Kd is commonly meant the equilibrium constant for the complex coming apart. The low end stands for tighter binding, the high end for weaker binding.
